B1: ALBINO3-like protein 1, chloroplastic (Arabidopsis thaliana (Mouse-ear cress)), Q9FYL3 (parent)
chain: MSSTISLKPTHLILSSFSTGKVLQFRRSRFSHTPSSSSSRYRTLVAQLGFRPDSFDFIKDHAENLLYTIADAAVSSSETFESVAGTTTKTTQSNDWFSGIANYMETILKVLKDGLSTVHVPYSYGFAIILLTVLVKAATFPLTKKQVESAMAMKSLTPQIKAIQERYAGDQEKIQLETARLYKLAGINPLAGCLPTLATIPVWIGLYRALSNVADEGLLTEGFFWIPSLAGPTTVAARQNGSGISWLFPFIEGHPPLGWPDTLAYLVLPLLLVFSQYLSIQIMQSSQSNDPAMKSSQAVTKLLPLMIGYFALSVPSGLSLYWLTNNILSTAQQVWLQKYGGAKNPVEKFTNLVTKEDKTQQIEKSFSEPLVQKSVSELKIPREKGGEKVTPECPKPGERFRLLKEQEAKRRREKEERQKAEAALSNQNTDKAHEQDEKSDTAIVAEDDKKTELSAVDETSDGTVAVNGKPSIQKDETTNGTFGIGHDTEQQHSHETEKR
partner: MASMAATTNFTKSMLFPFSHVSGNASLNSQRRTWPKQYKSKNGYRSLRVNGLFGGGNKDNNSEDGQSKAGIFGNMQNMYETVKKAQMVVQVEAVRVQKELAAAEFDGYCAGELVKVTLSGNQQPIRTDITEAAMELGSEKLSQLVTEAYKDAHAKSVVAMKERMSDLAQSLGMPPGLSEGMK

Variants of: B1
Details: with ebfc2_arath STIC2, O82230

effect of a mutation on the interaction	Variant
decreasing interaction strength	MSSTISLKPTHLILSSFSTGKVLQFRRSRFSHTPSSSSSRYRTLVAQLGFRPDSFDFIKDHAENLLYTIADAAVSSSETFESVAGTTTKTTQSNDWFSGIANYMETILKVLKDGLSTVHVPYSYGFAIILLTVLVKAATFPLTKKQVESAMAMKSLTPQIKAIQERYAGDQEKIQLETARLYKLAGINPLAGCLPTLATIPVWIGLYRALSNVADEGLLTEGFFWIPSLAGPTTVAARQNGSGISWLFPFIEGHPPLGWPDTLAYLVLPLLLVFSQYLSIQIMQSSQSNDPAMKSSQAVTKLLPLMIGYFALSVPSGLSLYWLTNNILSTAQQVWLQKYGGAKNPVEKFTNLVTKEDKTQQIEKSFSEPLVQKSVSELKIPREKGGEKVTPECPKPSERFRLLKEQEAKRRREKEERQKAEAALSNQNTDKAHEQDEKSDTAIVAEDDKKTELSAVDETSDGTVAVNGKPSIQKDETTNGTFGIGHDTEQQHSHETEKR [G397S]

Variants of: B1
Details: with ebfc2_arath STIC2, O82230
Remark: another data set of the same source

effect of a mutation on the interaction	Variant
with no effect	MSSTISLKPTHLILSSFSTGKVLQFRRSRFSHTPSSSSSRYRTLVAQLGFRPDSFDFIKDHAENLLYTIADAAVSSSETFESVAGTTTKTTQSNDWFSGIANYMETILKVLKDGLSTVHVPYSYGFAIILLTVLVKAATFPLTKKQVESAMAMKSLTPQIKAIQERYAGDQEKIQLETARLYKLAGINPLAGCLPTLATIPVWIGLYRALSNVADEGLLTEGFFWIPSLAGPTTVAARQNGSGISWLFPFIEGHPPLGWPDTLAYLVLPLLLVFSQYLSIQIMQSSQSNDPAMKSSQAVTKLLPLMIGYFALSVPSGLSLYWLTNNILSTAQQVWLQKYGGAKNPVEKFTNLVTKEDKTQQIEKSFSEPLVQKSVSELKIPREKGGEKVTPECPKPSERFRLLKEQEAKRRREKEERQKAEAALSNQNTDKAHEQDEKSDTAIVAEDDKKTELSAVDETSDGTVAVNGKPSIQKDETTNGTFGIGHDTEQQHSHETEKR [G397S]

Reference: IntAct's records for PubMed 28684427
